Laboratory results reported in article PMC10828781, “Genome variation and LTR-RT analyses of an ancient peach landrace reveal mechanism of blood-flesh fruit color formation and fruit maturity date advancement”.

Molecular target: PpBL (Prunus persica, UniProt M5WDM1 1-437)
Test: EMSA; 5x, 10x, 50x competitor probe; EMSA: room temperature 30 min, 6% native PAGE in 0.5x TBE at 4 C, 60 V 1 h, binding buffer not stated; pull-down: 1 ug DNA-bead complex with 300 ul nuclear proteins, 20 min room temperature
Details: protein: recombinant; (pGEX-6p-1 vector); label: biotin

Sequence of PpBL (M5WDM1 entry or part of it): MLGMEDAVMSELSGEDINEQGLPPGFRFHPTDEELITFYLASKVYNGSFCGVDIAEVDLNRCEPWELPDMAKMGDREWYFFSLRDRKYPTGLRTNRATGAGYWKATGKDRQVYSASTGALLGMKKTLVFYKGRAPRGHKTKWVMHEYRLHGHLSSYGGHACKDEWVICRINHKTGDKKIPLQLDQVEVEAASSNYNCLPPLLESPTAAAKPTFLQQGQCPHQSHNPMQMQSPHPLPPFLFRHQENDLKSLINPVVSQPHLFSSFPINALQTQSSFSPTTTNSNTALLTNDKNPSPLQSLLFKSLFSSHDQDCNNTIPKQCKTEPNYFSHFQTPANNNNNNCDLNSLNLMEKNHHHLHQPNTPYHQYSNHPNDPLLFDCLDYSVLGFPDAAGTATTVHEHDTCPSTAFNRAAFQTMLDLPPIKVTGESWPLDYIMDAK

Binder	binding result
PpACS1 promoter probe (dsDNA) DNA 1: TACAACACGCAAGCAATTAC DNA 2: GTAATTGCTTGCGTGTTGTA	binds
PpACO1 promoter probe (dsDNA) DNA 1: ACAGTAATTTGCTTGCTTTC DNA 2: GAAAGCAAGCAAATTACTGT	binds
